Data as given in the RNAGym collection of RNA variant scans (doi:10.1073/pnas.2313332121).

B1: TPR t1 (parent)
chain: GACCAAUCUGCCCUCAGAGCUCGAGAACAUCUUCGGAUGCAGAGGAGGCAGGCUUCGGUGGCGCGAUAGCGCCAACGUCCUCAACCUCCAAUGCAUCCCACCACAUGAUGAUGCCUGAAGAGCCUUGGUUUUUUG

Variants of: B1
Assay: polymerase ribozyme fitness, log enrichment relative to wild type (log ratio); higher = more active; in vitro selection for triplet polymerase activity
Procedure, shortened: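 Fitness measures genotype enrichment against wild-type enrichment on a logarithmic scale, with inverse-variance-weighted averaging of replicates. The logarithm is base 2, and genotypes were kept only with ≥10 input reads and ≥1 read per output in Illumina sequencing. The sequenced libraries came from one triplicate in vitro selection round, including frozen incubation at −7 °C, of PCR-built, transcribed mutant libraries of each subunit of a heterodimeric triplet polymerase ribozyme.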

Variant	polymerase ribozyme fitness (log ratio)
GACCAAUCUGCCCUCAGAGCUCGAGAACAUCUUCGGAUGCAGAGGAGCGAGGCUUCGGUGGCGCGAUAGCGCCAACGUCCUUAACCUCCAAUGCAUCCCACCACAUGAUGAUGCCUGAAGAGCAUUCGUUUUCUU [G48C C49G C82U C124A G127C U133C G135U]	-0.601
GACCAAUCUGCCCUCAGAGCUCGAGAACAUCUUCGGAUGCAGAGGAGCCAGGCUUCGGUGGCGCGAUAGCGUCAACGCCCUCAACAUCCAAUGCAUCCCAACACAUGAUGAUGUCUGAAGAGCUUUGGUUUUUUG [G48C C72U U78C C86A C101A C114U C124U]	-4.1
GACCAAUCUGCCCUCAGAGCUCGAGAACAUCUUCGGAUGCAGAGGAGCCAGGCUUCGGUGGCGCGAUAGCGCCAACGUCCUCAACCUCCAAUGCAUCCCACCACAUGAUGCUGCCUGAAGAGCCUUGGUUUUUUG [G48C A111C]	-0.761
GACCAAUCUGCCCUCAGAGCUCGAGAACAUCUUCGGAUGCAGAGGAGCCAGGCUUCGGUGGCGCGAUAGCGCCAACGUCCUCAACCUCCAAUGCGUCCCACCACAAGAUGAUGCCUGAAGAGCCUUGGUUUUUUG [G48C A95G U106A]	-0.768
GACCAAUCUGCCCUCAGAGCUCGAGAACAUCUUCGGAUGCAGAGGAGCAAGGCUUUGGUGGCGCGAUAGCGCCAACGUCCUCAACCACCAAUGCAACCCACCACAUGAUGAUGCCUGAACAGCCUUGGUUUUUUG [G48C C49A C56U U87A U96A G120C]	-2.17
GACCAAUCUGCCCUCAGAGCUCGAGAACAUCUUCGGAUGCAGAGGAGCCAGUCUGCGGUGGCGCGAUAGCGCCAAUGUCCUCAACCUCCAAUGCAUCCCCCCACAUGAUGAUGCCUGAAGAGCCGUGGUUUUUUG [G48C G52U U55G C76U A100C U125G]	-4.57
GACCAAUCUGCCCUCAGAGCUCGAGAACAUCUUCGGAUGCAGAGGAGCCAGGCUUCGGUGGCGCGAUAGCGCCAACGUUCUCAACCUCCAAUGCAUCCCACCACAUGAUGAUGCCUGAAGAGCCUUGGUUUUUUG [G48C C79U]	-1.34
GACCAAUCUGCCCUCAGAGCUCGAGAACAUCUUCGGAUGCAGAGGAGCCAGGCUUCGGUGGCGCGAUAGUGCCAACGUCCUCAACCUCCAAUGCAUCCCACCACAUGAUGAUGCCUGAAGAGCAUUGGUUUUUUG [G48C C70U C124A]	0.758
GACCAAUCUGCCCUCAGAGCUCGAGAACAUCUUCGGAUGCAGAGGAGCCAGGCUUCGGUGGCGCGAUAGCGCCAACGUCCUCAACCUCCAAUGCAUCCCACCACAUGAUGAUGCAUGAAGUGCCUUGGUUUUUUG [G48C C115A A121U]	0.474
GACCAAUCUGCCCUCAGAGCUCGAGAACAUCUUCGGAUGCAGAGGAGCCAGCCUUCGGUGGCGCGAUAGCGCCAACGUCCUCAACCUCCAAUGCAUCCCACCACAUGAUGAUGCCUGAAGAGCCUUGGUUUUUUG [G48C G52C]	-2.25
GACCAAUCUGCCCUCAGAGCUCGAGAACAUCUUCGGAUGCAGAGGAGCCAUGCUUCGGUGGCGCGAUAGCGCUAAAAUCCUCAACCUCCAAUGCAUCCCACCACAUGAUGAUGCCUGAGGAGCCUUGGUUUUUUG [G48C G51U C73U C76A G77A A119G]	-6.51
GACCAAUCUGCCCUCAGAGCUCGAGAACAUCUUCGGAUGCAGAGGAGCCAGGCUUGGGUGGCGCGAUAGCGCCAACGUCCUCAACCUCCAAUGCAUCCCAUCACAUGAUGAUGCCUGAAGAGCCGUGGUUUUUUG [G48C C56G C101U U125G]	-1.87
GACCAAUCUGCCCUCAGAGCUCGAGAACAUCUUCGGAUGCAGAGGAGCCAGGCUUCGGUGGCGCGAUAGUGCCAACGUCCUCAAUCUCCAAUGCAUCCCACCACAUUAUGAUGCCUGAAGAGCCUUGGUUUUUUG [G48C C70U C85U G107U]	-6.63
GACCAAUCUGCCCUCAGAGCUCGAGAACAUCUUCGGAUGCAGAGGAGCCAGGCUUCGGUGGCGCGAUAGCGCAAACGUCCUCAACCUCCAAUGCAUCCCACCACAUGAUGAAGCCUGAACAGCCUUGGUUUUUUG [G48C C73A U112A G120C]	-0.954
GACCAAUCUGCCCUCAGAGCUCGAGAACAUCUUCGGAUGCAGAGGAGCCAGGCUUCGGUGGCGCGAUAGCGCCAAUGUCCUCAACCUUCAAUGCAUCCCACCACAUGAUGAUGCCUGAAGAGCCUUGGUUUUUUG [G48C C76U C88U]	-1.76
GACCAAUCUGCCCUCAGAGCUCGAGAACAUCUUCGGAUGCAGAGGAGCCAGGCUUCGGUGGUGCGAUAGCGCCAGCGUCCUCAACCUCCAAUGCAUCCCACCACAUGAUGAUGCCUGAAGAGCCUUGGUUUUUUG [G48C C62U A75G]	-1.21
GACCAAUCUGCCCUCAGAGCUCGAGAACAUCUUCGGAUGCAGAGGAGCCAGGUCUCGGUGGCGCGAUAGCGCCAACGUCCACAACCUCCAAUGCAUCCCACCACAUGAUGAUGCCUGAAGAGCCUUGGUUUUUUG [G48C C53U U54C U81A]	-2.99
GACCAAUCUGCCCUCAGAGCUCGAGAACAUCUUCGGAUGCAGAGGAGCUAGGCUUCGGUGGCGCGAUAGCCCCAACGUCCUCAACCUCCAAUGCAUCCCACAACAUGAUGAUGCCUGAAGAGCCUUGGUUUUUUG [G48C C49U G71C C102A]	-4.66
GACCAAUCUGCCCUCAGAGCUCGAGAACAUCUUCGGAUGCAGAGGAGCAAGGCUUCGGUGGCGCGAUAGCGCCAACGUCCUCAACCUCCAAUGCAUCCCACCACAUGAUGAUGCCUGAAGAGCCUUGAUUUUUUG [G48C C49A G128A]	-3.09
GACCAAUCUGCCCUCAGAGCUCGAGAACAUCUUCGGAUGCAGAGGAGCCAGGCUUCGGUGGCGCGAUAGCGCCAACGUCCUCAACCUCCAAUGCAUCCCAUCACGUGAUGAUGCCUGAAUAGCCUUGGUUUUUUG [G48C C101U A105G G120U]	-3.67
GACCAAUCUGCCCUCAGAGCUCGAGAACAUCUUCGGAUGCAGAGGAGCCAGGCUUCGGUGGUGCGAUAGCGCCAACGUCCUCAACCUCCAAUGCAUCCCACCACAUGAUGAUGCCUGAAGAGCCUUGGUUUUUUG [G48C C62U]	-2.91

Variant	polymerase ribozyme fitness (log ratio)
GACCAAUCUGCCCUCAGAGCUCGAGAACAUCUUCGGAUGCAGAGGAGCCAGGCUUCGGUGGCGCGAUAGCGCCAACGUCCUCAACCUCCAAUGCAUCCCAUCACAUGAGGAUGCCUGAAGAGCCUUGGUUUUUUG [G48C C101U U109G]	-5.98
GACCAAUCUGCCCUCAGAGCUCGAGAACAUCUUCGGAUGCAGAGGAGCCAGGCUUGGGUGGUGCGAUAGCGCCAACGCCCUCAACCUCCAAUGCAUCCCACCACAUGAUGAUGCCUGAAGAGCCUUGGUUUUUUG [G48C C56G C62U U78C]	-1.82
GACCAAUCUGCCCUCAGAGCUCGAGAACAUCUUCGGAUGCAGAGGAGCCAGGAUUCGGUGGCGCGAUAGCGCCAACGUGCUCAACCUCCAAUGCAUCCAACCACAUGAUGAUGCCUGAAGAGCAUUGGUUUUUUG [G48C C53A C79G C99A C124A]	-7.85
GACCAAUCUGCCCUCAGAGCUCGAGAACAUCUUCGGAUGCAGAGGAGCCAGGCUUAGGUGGCGCGAUAGCGCCAACGUCCUCAACCUCCAAUGCAUCCCACCACAUGAUGAUGCCUGAAGAGCCUUGGUUUUUUG [G48C C56A]	-1.68
GACCAAUCUGCCCUCAGAGCUCGAGAACAUCUUCGGAUGCAGAGGAGCCAGGCUUCGGUGGUGCGAUAGCGCCAACGUCCUCAACCUCCAAGGCAUCCCACCACAUGAUGAUGCCUGAAGAGCCUUGGUUUUUUG [G48C C62U U92G]	-3.68
GACCAAUCUGCCCUCAGAGCUCGAGAACAUCUUCGGAUGCAGAGGAGCCAGGCUUCGGUGGCGCGAUAGCGCGAACGUCCUCAACCUCCAAUACAUCCCACCACAUGAUGAUGCCUGAAGAGCCUUGGUUUUUUG [G48C C73G G93A]	-1.8
GACCAAUCUGCCCUCAGAGCUCGAGAACAUCUUCGGAUGCAGAGGAGCCAGGCUUCGGUGGCGCGAUAGCGCCAACGUCCUCAACCUCCAAUGCAUCCCACCACAUGAUGAUGCCUGAAGAGGCUUGGUUUUUUG [G48C C123G]	0.677
GACCAAUCUGCCCUCAGAGCUCGAGAACAUCUUCGGAUGCAGAGGAGCCAGGGUUCGGUGGCGGAAUAGCGCCAACGUCCUCAACCUCCAAUGCAUCCCACCACAUGAGGAUGCCUGAAGAGCCUUGGUUUUUUG [G48C C53G C64G G65A U109G]	-6.8
GACCAAUCUGCCCUCAGAGCUCGAGAACAUCUUCGGAUGCAGAGGAGCCAGGCUUUGGUGGCGCGAUAGCGCGAACGUCCUCAACCUCCAAUGCAUCCCACCACAUGAUGAUGCCUGAAGAGCCUUGGUUUUUUG [G48C C56U C73G]	-1.95
GACCAAUCUGCCCUCAGAGCUCGAGAACAUCUUCGGAUGCAGAGGAGCCAGGCUUGGGUGGCGCGAUAGCACCAACGUCCUCAACCUCCAAUGCAUACCACCAUAUGAUGAGGCCUGAAGAGCCUUGGUUUUUUG [G48C C56G G71A C97A C104U U112G]	-6.76
GACCAAUCUGCCCUCAGAGCUCGAGAACAUCUUCGGAUGCAGAGGAGCCAGGCUUCGGUGGCGCGAUAGCGCCAACGUCCUCAACCUCCAAUGCAUCCCACCAUAUGAUGAUGCCUGAAGAGCCUUGGUUUUUUU [G48C C104U G135U]	-1.53
GACCAAUCUGCCCUCAGAGCUCGAGAACAUCUUCGGAUGCAGAGGAGCCAGGCUUCGGUGGCGCGAUAGCGCCAACGUCCUCAACCUCCAAUGCAUCCCACCUCAUGAUGAUGCCUGAAAAGCCUUGGUUUUUUG [G48C A103U G120A]	-6.04
GACCAAUCUGCCCUCAGAGCUCGAGAACAUCUUCGGAUGCAGAGGAGCAAGGCUUCGGUGGCGCGAUAGCGCCAACGUCCUCAACCUCCAAUGCAUCCCACCACAUGAUGAUGCCUGAAGAGCCUUGGAUUUUUG [G48C C49A U129A]	-3.14
GACCAAUCUGCCCUCAGAGCUCGAGAACAUCUUCGGAUGCAGAGGAGCAGGCUUUCGGUGGCGCGAUAGCGCCAACGUCCUCAACGUCCAAUGUAUCCCACCACAUGAUGAUGACUGAAGAGCCUUGGUUUUUUG [G48C C49A A50G G52C C53U C86G C94U C114A]	-3.63
GACCAAUCUGCCCUCAGAGCUCGAGAACAUCUUCGGAUGCAGAGGAGCCAGGGUUCGGUGGCGCGAUAGCGCCAACGUCCUCAACCUCCAAUGCAUCCCACCACAUGAUGAUGCCUGAAGAGCCUUGGUUUUUUG [G48C C53G]	-0.405
GACCAAUCUGCCCUCAGAGCUCGAGAACAUCUUCGGAUGCAGAGGAGCCAGGCUUCGGUGGCGGGAUAGCGCCAACGUCCUCAACCUCCAAUGCAUCCCACCACAUGAUGAUGCCUGAAGAGCUUUGGUUUUUUG [G48C C64G C124U]	-5.87
GACCAAUCUGCCCUCAGAGCUCGAGAACAUCUUCGGAUGCAGAGGAGCCAGGCUUAGGUGGCGCGAUAGCGCCAACGUCCUCAACCUCCAAUGCAUACCACCAUAUGAUGAGGCCUGAAGAGCCUUGGUUUUUUG [G48C C56A C97A C104U U112G]	-6.59
GACCAAUCUGCCCUCAGAGCUCGAGAACAUCUUCGGAUGCAGAGGAGCCAGGCUUCGGUGGCGCGAUAGCGACAACGUGCUCAACCUCCAAUGCAUCCCACCACAUGAUGAUGCCUGAAGAGCCUUCGUUUUUUG [G48C C72A C79G G127C]	-3.9
GACCAAUCUGCCCUCAGAGCUCGAGAACAUCUUCGGAUGCAGAGGAGCUAGGCUUCGGUGGCGCGAUAGCGCCAACGUCCUCAACCUCCAAUGCAUCCCACCACAUGAUGUUGCCUGAAGAGCCUUGGUUUUAUG [G48C C49U A111U U133A]	-4.49
GACCAAUCUGCCCUCAGAGCUCGAGAACAUCUUCGGAUGCAGAGGAGCCAGGCUUCGGUGGCGCGAUAGCGCCAACGUCCUCAACCUCCAAUGCAUCCCACCGCAUGAUGAUGCCUGAAGAGCCUUGGUUUUUUG [G48C A103G]	-5.44
GACCAAUCUGCCCUCAGAGCUCGAGAACAUCUUCGGAUGCAGAGGAGCCAGGCUUCGGUGGCGCGAUAGCGCCAACGUCCUCAACCUCCAAUGCAUCCCACCACAUGAUGAUGACUGAAGAGCCUUGGUUUUUUG [G48C C114A]	-1.76
